According to US20100183588A1 (IVS INSTITUT DES VAISSEAUX ET DU SANG, published 2010):

Molecular target: UNC5H4 receptor of the pericytes and smooth muscle cells
Experiment: cell-based or functional assay

B1: mutated netrin 4 (SEQ ID NO: 522), recombinant protein (ligand)
chain: LSGVAGVSSRCEKACNPRMGNLALGRKLWADTTCGQNATELYCFYSENTDLTCRQPKCDKCNAAYPHLAHLPSAMADSSFRFPRTWWQSAEDVHREKIQLDLEAEFYFTHLIVMFKSPRPAAMVLDRSQDFGKTWKPYKYFATNCSATFGLEDDVVKKGAICTPKYSSPFPCTGGEVIFKALSPPYDTENPYSAKVQEQLKITNLRVQLLKRQSYPCQRNDLNEEPQHFTHYAIYDFIVKGSCFCNGHADQCIPVHGFRPVKAPGTFHMVHGKCMCKHNTAGSHCQHCAPLYNDRPWEAADGKTGAPNECRTRKCNGHADTCHFDVNVWEASGSRSGGVCDDCQHNTEGQYCQRCKPGFYRDLRRPFSAPDACKPCSCHPVGSAVLPANSVTFCDPSNGDCPCKPGVAGRRCDRCMVGYWGFGDYGCRPCDCAGSCDPITGDCISSHTDIDWCHEVPDFRPVHNKSEPAWEWEDAQGFSALLHSGKCECKEQTLGKAKAFCGMKYSYVLKIKILSAHDKGTHVEVNVKIKKVLKSTKLKIFRGKRTLYPESWTDRGCTCPILNPGLEYLVAGHEDIRTGKLIVNMKSFVQHWKPSLGRKVMDILKRECK
  VSM migration: chemotactic activity relative to non-mutated netrin 4: 3000 fold over non-mutated netrin 4
  VSM proliferation: mitogenic activity relative to non-mutated netrin 4: 1000 fold over non-mutated netrin 4
